Article PMC2593743 (Nature structural & molecular biology, 2008)

What was measured:
[1] = target: T1, human spastin MIT domain (residues 112-195), purified (human, UniProt Q9UBP0-1 112-195); experiment: SPR
T1 sequence (looked up): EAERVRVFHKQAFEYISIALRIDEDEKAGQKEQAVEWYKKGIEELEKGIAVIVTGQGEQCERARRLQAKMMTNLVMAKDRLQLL

[2] = target: T2, VPS4A MIT domain, recombinant (His6-VPS4 MIT) (UniProt Q9UN37 2-80); experiment: SPR
T2 sequence (looked up): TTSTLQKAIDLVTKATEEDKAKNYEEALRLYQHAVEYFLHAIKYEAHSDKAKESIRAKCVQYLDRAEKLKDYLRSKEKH

B1: polyhistidine-tagged CHMP1B-CTR (residues 126-199), wild type (domain or fragment, human, UniProt Q7LBR1 126-199, looked up)
chain: DVQTQQMEDTMSSTTTLTTPQNQVDMLLQEMADEAGLDLNMELPQGQTGSVGTSVASAEQDELSQRLARLRDQV
Question: With B1 as the binder, how does the Kd [1] read?
Answer: Its Kd is 12 µM.

Question: What about the Kd [2] of the same binder?
Answer: The Kd was 33 µM.
